In PMC10686790, “Crystal structure of the GDSL family esterase EstL5 in complex with PMSF reveals a branch channel of the active site pocket” (Acta Biochimica et Biophysica Sinica, 2023):

Each protein was assayed on CCCC(=O)Oc1ccc([N+](=O)[O-])cc1 (assay: purified protein). Settings: 20 mM Tris-HCl pH 8.0, 30°C.
Type: biochemical, Geobacillus thermodenitrificans

Protein | Km | kcat
EstL5 (Geobacillus thermodenitrificans) (protein, without deduced signal peptide, N-terminal His tag, pET28b, E. coli BL21(DE3); two molecules in asymmetric unit) ALVVQDQLFTAAKPSIEQKRPSANEAKKRDGEIDIVALGDSLTRGTGDESGKGYIGYMVDELRQQTDEPIRVTNLAIRGLRSDGLLRQLGQSEIQRQIAMADLIVMTIGGNDLFQGGEALEWNVKELDEAKRQYIANLDRIFALLRRLNSEAVIFAIGLYNPFSDLDDAKRTSAIVRDWNFASAEVAAHYPNIVAVPTFDLFALHVNDYLYSDHFHPNKEGYKRIGERVASLITLTEEDRQ | 640 ± 2210 µM | 116.27±1.71 S-1
EstL5 (Geobacillus thermodenitrificans; S207W) (protein, without deduced signal peptide, N-terminal His tag, pET28b, E. coli BL21(DE3); two molecules in asymmetric unit) ALVVQDQLFTAAKPSIEQKRPSANEAKKRDGEIDIVALGDSLTRGTGDESGKGYIGYMVDELRQQTDEPIRVTNLAIRGLRSDGLLRQLGQSEIQRQIAMADLIVMTIGGNDLFQGGEALEWNVKELDEAKRQYIANLDRIFALLRRLNSEAVIFAIGLYNPFSDLDDAKRTSAIVRDWNFAWAEVAAHYPNIVAVPTFDLFALHVNDYLYSDHFHPNKEGYKRIGERVASLITLTEEDRQ | 790 ± 2670 µM | 86.78±1.03 S-1
EstL5 (Geobacillus thermodenitrificans; S207F) (protein, without deduced signal peptide, N-terminal His tag, pET28b, E. coli BL21(DE3); two molecules in asymmetric unit) ALVVQDQLFTAAKPSIEQKRPSANEAKKRDGEIDIVALGDSLTRGTGDESGKGYIGYMVDELRQQTDEPIRVTNLAIRGLRSDGLLRQLGQSEIQRQIAMADLIVMTIGGNDLFQGGEALEWNVKELDEAKRQYIANLDRIFALLRRLNSEAVIFAIGLYNPFSDLDDAKRTSAIVRDWNFAFAEVAAHYPNIVAVPTFDLFALHVNDYLYSDHFHPNKEGYKRIGERVASLITLTEEDRQ | 650 ± 1920 µM | 86.51±1.68 S-1
